± gives the standard deviation of the averaged measurements.
B1: library; a variant is named by its letters at N, in order (parent)
chain: GCUGUCACCGAGAAACUGUGAAGUAUAUCUUAAACCUGGGCACUUAAAAGAUAUAUGGAGUUAGUAGUGCAACCUGCUCGGUCUGAUGAGUCCNNNNNNGGACGAAACAGC

Assays:
[1] = variants of: B1; test: normalized RNA/DNA level without ligand (relative to sTRSVctl = 100) (log10 (% of sTRSVctl)); HEK293T; ligand: cyclic di-GMP (c-di-GMP-II aptamer); higher = less ribozyme self-cleavage, higher mRNA level; settings: reporter: mCherry (pCS4076), ligand present: no
Method in brief: (§1)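 For each 6-well well, 4 µg of library plasmid encoding mCherry-linked ribozyme switches, or eGFP-linked ones in some ligand experiments, was transfected into HEK293T. Any ligand was added 1 h before transfection, and RNA was extracted with EDTA 72 h after it, then reverse-transcribed, amplified, barcoded and sequenced. RNA level was obtained by dividing RNA reads by DNA reads, normalizing to a spiked-in non-cleaving sequence or to the top sequences, then scaling and log-transforming. The top set was 25 sequences, scaling was ×100 with log10, and ≥100 DNA reads were required.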

[2] = variants of: B1; test: normalized RNA/DNA level with ligand (relative to sTRSVctl = 100) (log10 (% of sTRSVctl)); HEK293T; ligand: cyclic di-GMP (c-di-GMP-II aptamer); ligand concentration (+) RNA-Seq: 1 mM; higher = less ribozyme self-cleavage, higher mRNA level; settings: reporter: mCherry (pCS4076), ligand present: yes
Method in brief: as §1

| Variant | normalized RNA/DNA level without ligand (log10) [1] | normalized RNA/DNA level with ligand (log10) [2] |
| --- | --- | --- |
| AGGCUA | 1.51 ± 0.084 | 1.65 ± 0.095 |
| GGCUUA | 1.61 ± 0.074 | 1.79 ± 0.12 |
| UCAUAA | 1.47 ± 0.065 | 1.67 ± 0.087 |
| GACCCU | 1.779 ± 0.0057 | 1.87 ± 0.089 |
| GUUCAG | 1.77 ± 0.023 | 1.86 ± 0.12 |
| UUACGU | 1.66 ± 0.03 | 1.8 ± 0.079 |
| CGAUCU | 1.52 ± 0.053 | 1.7 ± 0.073 |
| AUCGCC | 1.78 ± 0.013 | 1.88 ± 0.15 |
| AUGUCC | 1.74 ± 0.02 | 1.86 ± 0.15 |
| CAAACG | 1.776 ± 0.013 | 1.84 ± 0.059 |
| UUUGUC | 1.795 ± 0.011 | 1.9 ± 0.11 |
| UUGGUU | 1.7 ± 0.027 | 1.84 ± 0.097 |
| GGAUGC | 1.7 ± 0.079 | 1.83 ± 0.067 |
| UUCAGC | 1.78 ± 0.082 | 1.9 ± 0.13 |
| GUUGGU | 1.611 ± 0.011 | 1.77 ± 0.1 |
| UUUUCC | 1.84 ± 0.058 | 1.89 ± 0.16 |
| AAUUUC | 1.721 ± 0.0067 | 1.87 ± 0.08 |
| UGGCUA | 1.719 ± 0.003 | 1.87 ± 0.11 |
| AUUUAG | 1.63 ± 0.065 | 1.77 ± 0.077 |
| ACGGCA | 1.648 ± 0.011 | 1.77 ± 0.1 |

| Variant | normalized RNA/DNA level without ligand (log10) [1] | normalized RNA/DNA level with ligand (log10) [2] |
| --- | --- | --- |
| ACGGCU | 1.56 ± 0.018 | 1.75 ± 0.12 |
| CCUCGA | 1.71 ± 0.058 | 1.84 ± 0.093 |
| UACGUA | 1.64 ± 0.018 | 1.8 ± 0.056 |
| CUCUGG | 1.81 ± 0.066 | 1.86 ± 0.14 |
| UACAUG | 1.711 ± 0.013 | 1.85 ± 0.14 |
| UACAUU | 1.59 ± 0.034 | 1.78 ± 0.09 |
| UACAUA | 1.712 ± 0.017 | 1.86 ± 0.065 |
| UGCUGC | 1.76 ± 0.025 | 1.92 ± 0.1 |
| GUCUUA | 1.677 ± 0.0086 | 1.83 ± 0.15 |
| AUCGGG | 1.67 ± 0.069 | 1.81 ± 0.12 |
| AUCGGC | 1.78 ± 0.033 | 1.87 ± 0.16 |
| AUCGGU | 1.647 ± 0.0035 | 1.78 ± 0.066 |
| UGCGAU | 1.605 ± 0.0035 | 1.8 ± 0.091 |
| UCUUUU | 1.744 ± 0.012 | 1.84 ± 0.073 |
| UCUUUA | 1.65 ± 0.031 | 1.84 ± 0.11 |
| CUGCAU | 1.6242 ± 0.0013 | 1.77 ± 0.16 |
| GGCGAU | 1.586 ± 0.014 | 1.72 ± 0.11 |
| CCUAAC | 1.66 ± 0.033 | 1.8 ± 0.097 |
| UUUGGA | 1.65 ± 0.051 | 1.79 ± 0.085 |
| UCCGUG | 1.73 ± 0.033 | 1.85 ± 0.11 |

| Variant | normalized RNA/DNA level without ligand (log10) [1] | normalized RNA/DNA level with ligand (log10) [2] |
| --- | --- | --- |
| UCGGCC | 1.85 ± 0.024 | 1.95 ± 0.054 |
| GCAAUU | 1.48 ± 0.086 | 1.69 ± 0.1 |
| CUUAGU | 1.78 ± 0.051 | 1.88 ± 0.058 |
| CAUGUC | 1.72 ± 0.035 | 1.82 ± 0.088 |
| GUUUUC | 1.69 ± 0.025 | 1.86 ± 0.09 |
| CUCGCG | 1.857 ± 0.014 | 1.91 ± 0.039 |
| GAAGGC | 1.62 ± 0.023 | 1.79 ± 0.13 |
| GUAACC | 1.77 ± 0.084 | 1.87 ± 0.092 |
| UUGUAC | 1.74 ± 0.089 | 1.85 ± 0.18 |
| AUCCUU | 1.74 ± 0.042 | 1.89 ± 0.081 |
| AUAUAC | 1.68 ± 0.019 | 1.82 ± 0.12 |
| GGUCGC | 1.74 ± 0.034 | 1.87 ± 0.15 |
| CGUCCG | 1.82 ± 0.035 | 1.89 ± 0.069 |
| UUGCGC | 1.74 ± 0.027 | 1.83 ± 0.072 |
| CCUUCG | 1.74 ± 0.0028 | 1.87 ± 0.14 |
| CCUGAG | 1.55 ± 0.077 | 1.76 ± 0.15 |
| GCCUUG | 1.576 ± 0.007 | 1.81 ± 0.1 |
| CGCUCG | 1.77 ± 0.077 | 1.88 ± 0.16 |

Reference: the supplement of paper PMC6757056
